Experimental data taken from patent US20240116999A1, “CONFORMATIONALLY CONSTRAINED GLUCAGON ANALOGUES AND THEIR USE IN GLUCAGON-SINGLE CHAIN INSULIN FUSION PROTEINS” (THE TRUSTEES OF INDIANA UNIVERSITY, priority 2021, published 2024).
Bridge positions count the residues as written; N and C are the ends. Square brackets hold non-standard residues; d marks the D form. Orn = NCCC[C@H](N)C(=O)O

B1: HSQGTFTSDYSOKLDSEOAQDFVQWLMNTEEKFVNQHLCGSHLVEALYLVCGEOGFFYTPETEEGPOOGIVEQCCQSICSLEQLENYCN (protein)
chain: HSQGTFTSDYSXKLDSEXAQDFVQWLMNTEEKFVNQHLCGSHLVEALYLVCGEXGFFYTPETEEGPXXGIVEQCCQSICSLEQLENYCN
modifications: K13-E17 lactam; ornithine residues; glucagon/insulin fusion peptide analog; (12)..(12) Xaa at position 12 is ornithine; (18)..(18) Xaa at position 18 is ornithine; (54)..(54) Xaa at position 54 is ornithine; (67)..(67) Xaa at position 67 is ornithine; (68)..(68) Xaa at position 68 is ornithine
notes: fusion protein made by trypsin-mediated ligation
B2: HSQGTFTSDYSOKLDSEOAQDFVQWLMNTEEKFVNQHLCGSHLVEALYLVCGEOGFFYTPETEEGPOOGILEQCCQSICSLEQLENYCN (protein)
chain: HSQGTFTSDYS[Orn]KLDSE[Orn]AQDFVQWLMNTEEKFVNQHLCGSHLVEALYLVCGE[Orn]GFFYTPETEEGP[Orn][Orn]GILEQCCQSICSLEQLENYCN
modifications: lactam 13-17; ends not checked
notes: as for B1

Experiments:
[1] = Thioflavin T (ThT) fibrillation assay; assay type: physicochemical; conditions: FIG. 15; month-long assay, 100 μM, pH 7.4, 37° C.
Protocol: Fibrillation Assays. We employed an automated plate-based fluorescent device to monitor the time course of peptide fibrillation using a Thioflavin T (ThT) assay. This assay is based on the THT fluorescence emission at 480 nm upon binding to mature fibrils when excited at 440 nm. The assay was performed by preparing stock solutions of the fusion protein and the individual peptides in either NaCl 0.9% (pH 2.5) or PBS (pH 7.4). Our experience has identified 100-μM final concentration as optimal fibrillation conditions for glucagon analogues. Stock solutions were diluted with NaCl 0.9% or 1X PBS buffer, pH adjusted (with 1N HCl or 1N NaOH) mixed with Thioflavin-T (THT) at a final concentration of 16 μM, centrifuged, and 250 μl of the sample were placed on a 96-well plate with 4-10 technical replicates. Measurements were done every 15 minutes and the sample agitated at 1096 cpm at 37° C. on a Synergy H1 microplate reader (BioTek, Winooski, VT). The lag time, defined as the time-point at which fibrillation starts its exponential phase, was considered as the point at which fluorescence was 3 times the background signal.

[2] = tested on: STZ (diabetic) rats; assay: In vivo assay in STZ (diabetic) rats, subcutaneous injection; parameters: species or system rat; conditions: for effect on blood glucose levels: FIG. 17, STZ rats, 12 nmol/kg per rat
Description: FIG. 17 presents an in vivo assay done in STZ rats.
FIG. 18 presents another in vivo assay done in STZ rats. The four fusion proteins used in FIG. 17 were subcutaneously injected at doses of 23.8 nmol/kg per rat. […] In this study both fusion proteins carrying an active SCI analogue had similar activities.

| Molecule | formation of amyloid-like fibrils [1] | effect on blood glucose levels [2] | activity at 23.8 nmol/kg relative to the 12-nmol/kg rat doses ([2]; FIG. 18 vs FIG. 17, STZ rats) | effect on blood-glucose concentrations ([2]; FIG. 18, STZ rats, 23.8 nmol/kg per rat) |
| --- | --- | --- | --- | --- |
| B1 | did not form amyloid-like fibrils within the duration of the experiment | higher activity than the corresponding analogue containing an active SCI and inactive glucagon | stayed in a similar range | – |
| B2 | – | slight rise in blood glucose levels | – | didn't cause an increase in blood-glucose concentrations |
